T1: human IL-1α (human, UniProt P01583 113-271)
T1 chain: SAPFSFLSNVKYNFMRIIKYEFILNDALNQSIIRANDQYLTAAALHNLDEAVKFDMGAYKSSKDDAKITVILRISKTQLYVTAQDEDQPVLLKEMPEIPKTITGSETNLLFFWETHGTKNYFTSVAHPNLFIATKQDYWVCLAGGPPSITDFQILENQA

B1: ABT2-108-538x/ABT1-95-15 scFv on yeast surface (scFv, V domains shown)
VH: EVQLLESGGGLVQPGGSLRLSCAASGFTFADEGMMWVRQAPGKGLEWVSRITYSGKNTYYADSVKGRFTISRDNSKNTLYLQMNSLRAEDTAVYYCAKYTGRILGHHLFDYWGQGTLVTVSS
VL: DIQMTQSPSSLSASVGDRVTITCRASQPIVRNLRWYQQKPGKAPKLLIYSSSYLEPGVPSRFSGSGSGTDFTLTISSLQPEDFATYHCQQGYRWPVTFGQGTKVEIK
B2: ABT2-108-538x/ABT1-95-15 scFv (scFv, V domains shown)
VH: B1 VH
VL: B1 VL

What was measured:
[1] = molecular target: T1, human IL-1α; assay: yeast surface display titration (FACS); unlabelled IL-1α
[2] = molecular target: Bio-IL-1a; assay: yeast surface display titration (FACS); biotinylated IL-1α

Binder	EC50 [1]	EC50 [2]
B1	0.664 nM	–
B2	–	0.664 nM

Reference: patent publication US20090291081A1 (published 2009)
